This is an account of results in US20250333507A1 (SHANGHAI CELGEN BIO PHARMACEUTICAL, published 2025).

In experiment [1] the target is full-length human TIGIT on the cell membrane (human) (UniProt Q495A1). Description: cell-based or functional assay.
For experiment [2], the target named is T1, IL2Rαγ (dimer) on 293F cells (human, UniProt P01589 22-272; P31785 23-369).
T1 construct: whole, on cells
T1 sequence (looked up) 1: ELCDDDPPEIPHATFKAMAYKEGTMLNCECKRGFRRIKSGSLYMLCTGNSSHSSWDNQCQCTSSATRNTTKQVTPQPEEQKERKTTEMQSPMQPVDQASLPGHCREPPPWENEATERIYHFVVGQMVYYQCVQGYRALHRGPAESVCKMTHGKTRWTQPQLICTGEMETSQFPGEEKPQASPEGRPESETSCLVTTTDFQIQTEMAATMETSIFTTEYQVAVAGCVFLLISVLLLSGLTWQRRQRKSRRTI
T1 sequence (looked up) 2: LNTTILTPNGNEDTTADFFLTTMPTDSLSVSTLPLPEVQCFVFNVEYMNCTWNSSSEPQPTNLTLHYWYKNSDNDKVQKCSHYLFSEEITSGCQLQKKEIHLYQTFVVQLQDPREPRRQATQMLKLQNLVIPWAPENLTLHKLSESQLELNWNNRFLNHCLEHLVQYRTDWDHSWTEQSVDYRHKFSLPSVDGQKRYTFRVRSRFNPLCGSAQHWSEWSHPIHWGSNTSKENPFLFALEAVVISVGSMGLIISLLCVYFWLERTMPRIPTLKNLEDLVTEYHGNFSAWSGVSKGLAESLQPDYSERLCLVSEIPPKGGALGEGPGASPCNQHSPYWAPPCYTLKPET
Put plainly: flow cytometry on 293F cells expressing IL2Rαγ. The source says:
First, human IL2Rα, IL2Rβ, and IL2Rγ expression plasmids (Sinobio) were co-transfected into 293F cells to transiently express the following IL2R complexes: IL2Rαβγ (trimer), IL2Rαγ (dimer), and IL2Rβγ (dimer). The expression of the respective IL2R subunits on the cell membrane was detected using antibodies against IL2Rα, IL2Rβ, and IL2Rγ.
Then, the binding activity of KD5201F, KD5201E, and control protein-1 to the 293F cells expressing the two types of IL2R complexes (αγ and βγ) was detected using flow cytometry.

The target in experiment [3] is T2, recombinant IL2Rβ subunit (Sinobio) (UniProt P14784 27-239).
T2 construct: also called IL2β subunit
T2 sequence (looked up): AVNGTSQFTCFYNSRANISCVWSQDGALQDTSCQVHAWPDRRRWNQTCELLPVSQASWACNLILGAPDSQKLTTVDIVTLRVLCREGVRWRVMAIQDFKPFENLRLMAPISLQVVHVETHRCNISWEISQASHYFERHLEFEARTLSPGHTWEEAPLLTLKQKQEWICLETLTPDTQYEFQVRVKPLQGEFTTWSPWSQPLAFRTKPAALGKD
Description: BLI, recombinant IL2Rβ subunit.

In experiment [4] the target is T3, mouse IL2R on CTLL-2 cells (mouse, UniProt P01590 22-268).
T3 sequence (looked up): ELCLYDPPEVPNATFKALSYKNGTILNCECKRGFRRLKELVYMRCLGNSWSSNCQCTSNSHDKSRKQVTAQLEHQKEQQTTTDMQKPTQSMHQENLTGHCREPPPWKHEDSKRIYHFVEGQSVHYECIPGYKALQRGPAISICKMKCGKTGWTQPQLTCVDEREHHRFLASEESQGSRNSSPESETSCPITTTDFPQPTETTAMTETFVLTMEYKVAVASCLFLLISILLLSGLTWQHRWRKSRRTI
Put plainly: cell-based or functional assay.

Experiment [5] deals with T4, full-length human TIGIT on the cell membrane (human, UniProt Q495A1 22-244).
T4 construct: whole, on cells; the cell is named under assay or readout; also called CHO-K-TIGIT; CHO-TIGIT
T4 sequence (looked up): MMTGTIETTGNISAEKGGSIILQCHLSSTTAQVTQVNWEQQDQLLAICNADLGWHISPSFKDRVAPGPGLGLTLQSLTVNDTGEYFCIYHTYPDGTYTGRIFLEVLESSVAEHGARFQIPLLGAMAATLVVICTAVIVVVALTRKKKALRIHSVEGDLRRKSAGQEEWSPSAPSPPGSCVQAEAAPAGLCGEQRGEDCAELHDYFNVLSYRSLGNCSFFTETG
Description: flow cytometry on Jurkat cells expressing human TIGIT. As to the method:
The binding activity of the anti-TIGIT antibody-IL2 fusion proteins to TIGIT on the cell membrane was tested using flow cytometry. A Jurkat cell line stably expressing human TIGIT was first established. The full-length human TIGIT gene (Sinobio) was amplified by PCR and cloned into the mammalian cell expression vector pcDNA3.1 (Invitrogen), using Not I and Xba I as cloning enzymes. The TIGIT expression plasmid was transfected into Jurkat cells to construct a stable Jurkat cell line expressing TIGIT (TIGIT-Jurkat).
The flow cytometry study method for the binding of TIGIT antibody-IL2 fusion proteins to cell membrane-bound TIGIT is summarized as follows: FACS buffer (1×PBS+0.5% BSA solution) was prepared. The required number of TIGIT-Jurkat cells, about 1×10⁵ to 5×10⁵ cells per sample, was taken and incubated with TIGIT antibody-IL2 fusion protein diluted to a certain ratio in FACS buffer, approximately 100 μL, at 4° C. for 30 minutes. After washing the cells once with FACS buffer, they were resuspended in FITC-conjugated anti-human IgG (Abcam: 6854) diluted in FACS buffer and incubated at 4° C. for 30 minutes. Finally, after washing the cells with FACS buffer, they were resuspended in 200 μL of FACS buffer for analysis. The parent TIGIT antibody P03479 was used as a control.
The results were consistent with those obtained by binding recombinant TIGIT in vitro (Example 6).

Experiment [6] addresses T5, mouse TIGIT (mouse, UniProt P86176 29-148, limits assumed).
T5 sequence (looked up): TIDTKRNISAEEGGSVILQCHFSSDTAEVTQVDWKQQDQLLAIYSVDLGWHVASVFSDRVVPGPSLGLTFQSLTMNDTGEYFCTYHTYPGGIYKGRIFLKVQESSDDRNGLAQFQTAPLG
Put plainly: not described.

Experiment [7] has as its target T4, full-length human TIGIT on the cell …. Put plainly: flow cytometry on CHO-K cells expressing human TIGIT. As to the method: The flow cytometry method to study the binding of TIGIT antibodies to TIGIT protein on the cell membrane is briefly described as follows: Firstly, FACS buffer was prepared, which was a 1×PBS solution with 0.5% BSA. The required number of CHO-K-TIGIT cells, approximately 1×10⁵ to 5×10⁵ cells per sample, was taken and suspended in FACS buffer. […] The cells were incubated in a refrigerator at 4° C. for 30 minutes, washed once with FACS buffer, and then resuspended in FITC-conjugated anti-human IgG (Abcam: 6854) diluted in FACS buffer. The cells were incubated again in a refrigerator at 4° C. for 30 minutes. Finally, after washing the cells with FACS buffer, the cells were resuspended in 200 μL of FACS buffer for analysis, and subjected to detection.
For orientation: Flow cytometry measures light scatter and fluorescence of single cells or particles in a stream.

For experiment [8], the target named is T6, recombinant human TIGIT (Human TIGIT His, Sino Biological, 10917-H08H) (human, UniProt Q495A1 22-138).
T6 construct: range 1-138; Bought reagent; also called recombinant human TIGIT antigen; recombinant human TIGITE-HIS; not shown: C-terminal histidine tag
T6 sequence (looked up): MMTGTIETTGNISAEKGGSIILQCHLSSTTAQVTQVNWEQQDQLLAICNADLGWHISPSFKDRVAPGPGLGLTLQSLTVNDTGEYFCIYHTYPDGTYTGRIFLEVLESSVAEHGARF
Description: competition ELISA, TIGIT-His coated, competitor CD155-mFC. The procedure:
To determine whether human-mouse chimeric and humanized TIGIT monoclonal antibodies can inhibit the binding between CD155 and TIGIT, an in vitro ELISA assay was conducted. Tiragolumab was used as a positive control. […] The next day, after washing twice with PBS, the wells were blocked with 3% BSA, 100 μL per well, and incubated at 37° C. for 1.5 hours, followed by washing 4 times with PBST. Gradient diluted TIGIT monoclonal antibodies and CD155-mFC (6 μg/mL) (Human CD155 (Fc Tag): Sino Biological, 10109-H02H) were mixed in equal volumes and added to the blocked and washed microplate and incubated at 37° C. for 2 hours, followed by 4 washes with PBST. Subsequently, a diluted secondary antibody HRP-conjugated anti-mFC (Jackson Immuno Research, 115-035-164) was added and incubated at 37° C. for 1.5 hours. After washing 4 times with PBST, TMB coloring solution was added, and the plate was incubated at 37° C. for 10-15 minutes before reading on a microplate reader (wavelengths 450 nm and 655 nm).
As shown, all TIGIT monoclonal antibodies could specifically block the binding between TIGIT and CD155.
On the technique in general: In an ELISA, binding on a coated surface is turned into a signal by an enzyme label.

Experiment [9] deals with T6, recombinant human TIGIT (Human TIGIT …). Put plainly: ELISA, recombinant human TIGIT-His coated. As to the method: The activity of TIGIT antibody-IL2 fusion protein binding TIGIT of the present disclosure in vitro was detected using ELISA. The ELIS was conducted as follows: coated with 50 μl of NaHCO₃(pH9.6) buffer containing […] recombinant human TIGITE-HIS overnight at 4° C.; on the next day, washed twice with PBS, followed by blocking with 3% BSA, 100 μL per well; incubated at 37° C. for 1.5h, and washed with PBST for 4 times. TIGIT antibody-IL2 fusion protein was diluted in a gradient with a binding solution (TBST containing 1% BSA), and added into the blocked and washed ELISA plate (50 μl per well), and incubated at 37° C. for 2 h. After washing with PBST for 4 times, a certain proportion of diluted anti-HFC (Jackson Immuno Research) labeled with alkaline phosphatase was added to each well and incubated at 37° C. for 1.5h. Finally, after washing with PBST for 4 times, PNPP color developing solution was added and incubated at 37° C. for 10-15 min, followed by reading on a microplate reader (wavelengths 405 nm and 490 nm). Human TIGIT monoclonal antibody P03479 was used as positive control.

In turn, Tiragolumab (antibody) showed an IFNγ release from PHA-activated PBMCs, increase over the blank in experiment [1] of 16%.

B1: KD5201E, HC(DANG)-IL2mut-1/LC(ART-Ig) anti-TIGIT antibody-IL2 fusion protein (other)
heavy 1: EVQVVESGGGLVKPGGSLRLSCAASGFTFSTYAMSWVRQAPGKGLEWVAEISSGGSHTFYADTVKGRFTISRDNAKNTLYLQMNSLRAEDTAVYYCARKTLDYYALDYWGQGTTVTVSSASTKGPSVFPLAPSSKSTSGGTAALGCLVKDYFPEPVTVSWNSGALTSGVHTFPAVLQSSGLYSLSSVVTVPSSSLGTQTYICNVNHKPSNTKVDKKVEPKSCDKTHTCPPCPAPELLGGPSVFLFPPKPKDTLMISRTPEVTCVVVAVSHEDPEVKFNWYVDGVEVHNAKTKPREEQYGSTYRVVSVLTVLHQDWLNGKEYKCKVSNKALPAPIEKTISKAKGQPREPQVYTLPPSRKEMTKNQVSLTCLVKGFYPSDIAVEWESNGQPENNYKTTPPVLDSDGSFFLYSKLTVDKSRWQQGNVFSCSVMHEALHNRYTQKSLSLSPGGGGGSGGGGSGGGGSAPTSSSTKKTQLQLEHLLLDLQMILNGINNYKNPKLTRMLTAKFYMPKKATELKHLQCLEEELKPLEEVLNLAQSKNFHFDPRDVVSNINVFVLELKGSETTFMCEYADETATIVEFLNRWITFCQSIISTLT
heavy 2: EVQVVESGGGLVKPGGSLRLSCAASGFTFSTYAMSWVRQAPGKGLEWVAEISSGGSHTFYADTVKGRFTISRDNAKNTLYLQMNSLRAEDTAVYYCARKTLDYYALDYWGQGTTVTVSSASTKGPSVFPLAPSSKSTSGGTAALGCLVKDYFPEPVTVSWNSGALTSGVHTFPAVLQSSGLYSLSSVVTVPSSSLGTQTYICNVNHKPSNTKVDKKVEPKSCDKTHTCPPCPAPELLGGPSVFLFPPKPKDTLMISRTPEVTCVVVAVSHEDPEVKFNWYVDGVEVHNAKTKPREEQYGSTYRVVSVLTVLHQDWLNGKEYKCKVSNKALPAPIEKTISKAKGQPREPQVYTLPPSREEMTKNQVSLTCLVKGFYPSDIAVEWESNGQPENNYKTTPPVLDSDGSFFLYSKLTVDKSRWQQGNVFSCSVMHEALHNHYTQESLSLSPG
light: DVQITQSPSYLSASVGDRVTINCRASKSISKYLAWYQQKPGKAPKLLIYSGSRLQSGIPSRFSGSGYGTDFTLTISSLQPEDFATYYCQQHNEYPWTFGGGTKLEIKRTVAAPSVFIFPPSDEQLKSGTASVVCLLNNFYPREAKVQWKVDNALQSGNSQESVTEQDSKDSTYSLSSTLTLSKADYEKHKVYACEVTHQGLSSPVTKSFNRGEC
notes: IL2mut-1 = F42A/L80F/R81D/L85V/I86V/I92F on the C-terminus of one heavy chain; Fc with D265A/N297G; also called HC1(DANG)-IL2mut/LC1(ART-Ig); HC1-IL2mut/LC1 (ART-Ig)
Consider B1, for which the binding result in experiment [2] is “binds”. Also, in experiment [3], the Kd – broadly, a measure of binding affinity in units of concentration – was roughly 8.2 nM. In experiment [4], the “EC50 of stimulating CTLL-2 cell growth (CCK-8)” value came out at 0.0153 µg/mL.

B2: humanized anti-human TIGIT monoclonal antibody P03479 (7103-07 huVH2VL1) (antibody, V domains shown)
VH: EVQVVESGGGLVKPGGSLRLSCAASGFTFSTYAMSWVRQAPGKGLEWVAEISSGGSHTFYADTVKGRFTISRDNAKNTLYLQMNSLRAEDTAVYYCARKTLDYYALDYWGQGTTVTVSS
VL: DVQITQSPSYLSASVGDRVTINCRASKSISKYLAWYQQKPGKAPKLLIYSGSRLQSGIPSRFSGSGYGTDFTLTISSLQPEDFATYYCQQHNEYPWTFGGGTKLEIK
notes: The constant region is described as IgG1 gamma in the embodiments; also called parent TIGIT antibody P03479
As for B2, the EC50 (commonly the concentration giving half of the maximal effect) in experiment [5] was found to be 0.0315 µg/mL; in experiment [7] it was 0.144 µg/mL; in [9], 0.0184 µg/mL. For the same molecule, in [6], the binding result was “no binding”. Moreover, the IC50 – broadly, the midpoint of a concentration-inhibition curve – in [8] amounted to 0.107 µg/mL.
